{"source": "paper PMC12613146", "molecular_target": "ectodomain of the epidermal growth factor receptor, EGFR25-645 (human)", "experiment": "BLI; biotinylated ligand (50 nM, 5 min) on streptavidin sensors, DDM proteomicelles of the membrane protein in the wells (six two-fold dilutions); 20 mM Tris-HCl, 300 mM KCl, 0.2% (w/v) DDM, 1 mg/ml BSA, pH 7.5; 22 °C; global fits, KD = koff/kon", "note": "Values joined by “and” are separate entries in the source; they are usually repeats but may differ in a detail not shown here. Equal values may be shown once.", "data": [{"substance": "TGF-α(GGS)2tFhuA", "values": [{"measurement": "kon", "value": "2600 M⁻¹ s⁻¹ and 2400 M⁻¹ s⁻¹ and 2500 M⁻¹ s⁻¹"}]}]}
